Consider 9 variants from IntAct's records for PubMed 27427983.

The chains are these.
B1: Non-structural maintenance of chromosomes element 3 homolog (Homo sapiens), Q96MG7 (parent)
chain: MLQKPRNRGRSGGQAERDRDWSHSGNPGASRAGEDARVLRDGFAEEAPSTSRGPGGSQGSQGPSPQGARRAQAAPAVGPRSQKQLELKVSELVQFLLIKDQKKIPIKRADILKHVIGDYKDIFPDLFKRAAERLQYVFGYKLVELEPKSNTYILINTLEPVEEDAEMRGDQGTPTTGLLMIVLGLIFMKGNTIKETEAWDFLRRLGVYPTKKHLIFGDPKKLITEDFVRQRYLEYRRIPHTDPVDYEFQWGPRTNLETSKMKVLKFVAKVHNQDPKDWPAQYCEALADEENRARPQPSGPAPSS
partner: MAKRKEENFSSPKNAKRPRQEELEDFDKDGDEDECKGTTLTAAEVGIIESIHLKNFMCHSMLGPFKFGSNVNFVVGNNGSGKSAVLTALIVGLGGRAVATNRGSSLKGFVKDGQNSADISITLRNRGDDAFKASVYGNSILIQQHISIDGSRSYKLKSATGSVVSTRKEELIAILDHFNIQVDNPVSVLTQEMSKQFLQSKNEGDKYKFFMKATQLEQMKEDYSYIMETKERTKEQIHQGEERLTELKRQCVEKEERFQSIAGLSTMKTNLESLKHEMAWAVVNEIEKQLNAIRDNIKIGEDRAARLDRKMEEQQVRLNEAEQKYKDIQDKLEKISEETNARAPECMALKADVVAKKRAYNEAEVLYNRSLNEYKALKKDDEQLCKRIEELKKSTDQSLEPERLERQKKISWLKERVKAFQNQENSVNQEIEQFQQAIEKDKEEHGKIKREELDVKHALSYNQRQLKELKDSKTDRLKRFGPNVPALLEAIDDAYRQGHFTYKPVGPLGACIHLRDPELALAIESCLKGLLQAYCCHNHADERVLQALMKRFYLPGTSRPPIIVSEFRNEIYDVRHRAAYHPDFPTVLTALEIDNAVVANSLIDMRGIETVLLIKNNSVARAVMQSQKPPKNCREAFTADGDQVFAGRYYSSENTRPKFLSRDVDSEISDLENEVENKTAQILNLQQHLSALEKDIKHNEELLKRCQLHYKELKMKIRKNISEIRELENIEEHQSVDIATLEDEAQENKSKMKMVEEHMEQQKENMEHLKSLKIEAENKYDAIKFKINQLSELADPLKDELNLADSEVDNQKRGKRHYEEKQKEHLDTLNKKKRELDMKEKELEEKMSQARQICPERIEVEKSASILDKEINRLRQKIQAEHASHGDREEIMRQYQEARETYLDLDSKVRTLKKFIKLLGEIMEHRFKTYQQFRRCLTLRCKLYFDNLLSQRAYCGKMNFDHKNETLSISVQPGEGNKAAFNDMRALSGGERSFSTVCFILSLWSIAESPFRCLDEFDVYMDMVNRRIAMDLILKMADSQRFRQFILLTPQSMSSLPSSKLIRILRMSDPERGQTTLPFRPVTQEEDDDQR
B2: Non-structural maintenance of chromosomes element 3 homolog (Homo sapiens), Q96MG7 (parent)
chain: B1 chain
partner: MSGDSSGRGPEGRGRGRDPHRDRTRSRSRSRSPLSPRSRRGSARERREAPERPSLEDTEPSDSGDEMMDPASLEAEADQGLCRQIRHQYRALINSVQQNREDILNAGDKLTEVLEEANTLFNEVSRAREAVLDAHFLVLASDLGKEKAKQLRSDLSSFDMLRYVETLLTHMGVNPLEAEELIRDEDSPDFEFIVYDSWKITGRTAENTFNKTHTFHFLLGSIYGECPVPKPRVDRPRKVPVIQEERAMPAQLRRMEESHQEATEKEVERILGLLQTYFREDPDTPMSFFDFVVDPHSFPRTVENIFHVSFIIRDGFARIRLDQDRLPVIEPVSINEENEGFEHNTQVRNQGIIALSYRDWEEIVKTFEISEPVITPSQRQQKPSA
B3: Non-structural maintenance of chromosomes element 3 homolog (Homo sapiens), Q96MG7 (parent)
chain: B1 chain
partner: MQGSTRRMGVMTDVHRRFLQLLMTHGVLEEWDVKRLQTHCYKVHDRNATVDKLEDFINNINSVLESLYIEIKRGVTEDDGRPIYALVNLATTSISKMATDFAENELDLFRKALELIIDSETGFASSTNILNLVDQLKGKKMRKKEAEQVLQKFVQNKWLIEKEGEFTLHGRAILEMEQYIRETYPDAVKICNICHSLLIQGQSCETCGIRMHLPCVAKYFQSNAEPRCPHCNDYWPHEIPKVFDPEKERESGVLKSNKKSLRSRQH

The first assay covers variants of B1. To be noted: with smc6_human SMC6, Q96SB8.
As for MLQKPRNRGRSGGQAERDRDWSHSGNPGASRAGEDARVLRDGFAEEAPSTSRGPGGSQGSQGPSPQGARRAQAAPAVGPRSQKQLELKVSELVQFLLIKDQKKIPIKRADILKHVIGDYKDIFPDLFKRAAERLQYVFGYKLVELEPKSNTYILINTLEPVEEDAEMRGDQGTPTTGLLMIVLGLIFMKGNTIKETEAWDFLRRLGVYPTKKHLIFGDPKKLITEDFVRQRYLEYRRIPHTDPVDYEFQWGPRTNLETSKMKVFKFVAKVHNQDPKDWPAQYCEALADEENRARPQPSGPAPSS [L264F], the “effect of a mutation on the interaction” value is “disrupting interaction strength”.

The variants in the next assay derive from B2. The following applies: with nse4a_human NSMCE4A.
Turning to MLQKPRNRGRSGGQAERDRDWSHSGNPGASRAGEDARVLRDGFAEEAPSTSRGPGGSQGSQGPSPQGARRAQAAPAVGPRSQKQLELKVSELVQFLAIKDQKKIPIKRADILKHVIGDYKDIFPDLFKRAAERLQYVFGYKLVELEPKSNTYILINTLEPVEEDAEMRGDQGTPTTGLLMIVLGLIFMKGNTIKETEAWDFLRRLGVYPTKKHLIFGDPKKLITEDFVRQRYLEYRRIPHTDPVDYEFQWGPRTNLETSKMKVLKFVAKVHNQDPKDWPAQYCEALADEENRARPQPSGPAPSS [L97A], the “effect of a mutation on the interaction” value is listed as “with no effect”. With MLQKPRNRGRSGGQAERDRDWSHSGNPGASRAGEDARVLRDGFAEEAPSTSRGPGGSQGSQGPSPQGARRAQAAPAVGPRSQKQLELKVSELVQFLLIKDQKKIPIKRADILKHVIGDYKDIFPDLFKRAAERLQYVFGYKLVELEPKSNTYILINTLEPVEEDAEMRGDQGTPTTGLLMIVLGLIFMKGNTIKETEAWDFLRRLGVYPTKKHLIFGDPKKLITEDFVRQRYLEYRRIPHTDPVDYEFQWGPRTNLETSKMKVFKFVAKVHNQDPKDWPAQYCEALADEENRARPQPSGPAPSS [L264F], the “effect of a mutation on the interaction” value is “disrupting interaction strength”. For MLQKPRNRGRSGGQAERDRDWSHSGNPGASRAGEDARVLRDGFAEEAPSTSRGPGGSQGSQGPSPQGARRAQAAPAVGPRSQKQLELKVSELVQFLLIKDQKKIPIKRADILKHVIGDYKDIFPDLFKRAAERLQYVFGYKLVELEPKSNTYILINTLEPVEEDAEMRGDQGTPTTGLLMIVLGLIFMKGNTIKETEAWDFLRRLGVYPTKKHLIFGDPKKLITEDFVRQRYLEYRRIPHTDPVDYEFQWGPRTNLETSKMKVLKAVAKVHNQDPKDWPAQYCEALADEENRARPQPSGPAPSS [F266A], the “effect of a mutation on the interaction” value is listed as “disrupting interaction strength”. As for MLQKPRNRGRSGGQAERDRDWSHSGNPGASRAGEDARVLRDGFAEEAPSTSRGPGGSQGSQGPSPQGARRAQAAPAVGPRSQKQLELKVSELVQFLLIKDQKKIPIKRADILKHVIGDYKDIFPDLFKRAAERLQYVFGYKLVELEPKSNTYILINTLEPVEEDAEMRGDQGTPTTGLLMIVLGLIFMKGNTIKETEAWDFLRRLGVYLTKKHLIFGDPKKLITEDFVRQRYLEYRRIPHTDPVDYEFQWGPRTNLETSKMKVLKFVAKVHNQDPKDWPAQYCEALADEENRARPQPSGPAPSS [P209L], the “effect of a mutation on the interaction” value is recorded as “disrupting interaction strength”.

The variants in another assay derive from B3. The following applies: with nse1_human NSMCE1, Q8WV22.
For MLQKPRNRGRSGGQAERDRDWSHSGNPGASRAGEDARVLRDGFAEEAPSTSRGPGGSQGSQGPSPQGARRAQAAPAVGPRSQKQLELKVSELVQFLAIKDQKKIPIKRADILKHVIGDYKDIFPDLFKRAAERLQYVFGYKLVELEPKSNTYILINTLEPVEEDAEMRGDQGTPTTGLLMIVLGLIFMKGNTIKETEAWDFLRRLGVYPTKKHLIFGDPKKLITEDFVRQRYLEYRRIPHTDPVDYEFQWGPRTNLETSKMKVLKFVAKVHNQDPKDWPAQYCEALADEENRARPQPSGPAPSS [L97A], the “effect of a mutation on the interaction” value is listed as “disrupting interaction strength”. With MLQKPRNRGRSGGQAERDRDWSHSGNPGASRAGEDARVLRDGFAEEAPSTSRGPGGSQGSQGPSPQGARRAQAAPAVGPRSQKQLELKVSELVQFLLIKDQKKIPIKRADILKHVIGDYKDIFPDLFKRAAERLQYVFGYKLVELEPKSNTYILINTLEPVEEDAEMRGDQGTPTTGLLMIVLGLIFMKGNTIKETEAWDFLRRLGVYPTKKHLIFGDPKKLITEDFVRQRYLEYRRIPHTDPVDYEFQWGPRTNLETSKMKVFKFVAKVHNQDPKDWPAQYCEALADEENRARPQPSGPAPSS [L264F], the “effect of a mutation on the interaction” value is on record as “with no effect”. Regarding MLQKPRNRGRSGGQAERDRDWSHSGNPGASRAGEDARVLRDGFAEEAPSTSRGPGGSQGSQGPSPQGARRAQAAPAVGPRSQKQLELKVSELVQFLLIKDQKKIPIKRADILKHVIGDYKDIFPDLFKRAAERLQYVFGYKLVELEPKSNTYILINTLEPVEEDAEMRGDQGTPTTGLLMIVLGLIFMKGNTIKETEAWDFLRRLGVYLTKKHLIFGDPKKLITEDFVRQRYLEYRRIPHTDPVDYEFQWGPRTNLETSKMKVLKFVAKVHNQDPKDWPAQYCEALADEENRARPQPSGPAPSS [P209L], the “effect of a mutation on the interaction” value is “decreasing interaction strength”. Turning to MLQKPRNRGRSGGQAERDRDWSHSGNPGASRAGEDARVLRDGFAEEAPSTSRGPGGSQGSQGPSPQGARRAQAAPAVGPRSQKQLELKVSELVQFLLIKDQKKIPIKRADILKHVIGDYKDIFPDLFKRAAERLQYVFGYKLVELEPKSNTYILINTLEPVEEDAEMRGDQGTPTTGLLMIVLGLIFMKGNTIKETEAWDFLRRLGVYPTKKHLIFGDPKKLITEDFVRQRYLEYRRIPHTDPVDYEFQWGPRTNLETSKMKVLKAVAKVHNQDPKDWPAQYCEALADEENRARPQPSGPAPSS [F266A], the “effect of a mutation on the interaction” value was “with no effect”.

A further assay covers variants of B3. To be noted: with nse1_human NSMCE1, Q8WV22. This is another data set of the same source.
MLQKPRNRGRSGGQAERDRDWSHSGNPGASRAGEDARVLRDGFAEEAPSTSRGPGGSQGSQGPSPQGARRAQAAPAVGPRSQKQLELKVSELVQFLLIKDQKKIPIKRADILKHVIGDYKDIFPDLFKRAAERLQYVFGYKLVELEPKSNTYILINTLEPVEEDAEMRGDQGTPTTGLLMIVLGLIFMKGNTIKETEAWDFLRRLGVYPTKKHLIFGDPKKLITEDFVRQRYLEYRRIPHTDPVDYEFQWGPRTNLETSKMKVFKFVAKVHNQDPKDWPAQYCEALADEENRARPQPSGPAPSS [L264F]: the “effect of a mutation on the interaction” value was “decreasing interaction strength”.
